Source: the supplement of paper PMC10724198
± gives the standard deviation of the averaged measurements.

Each sequence was assayed on Saccharomyces cerevisiae (assay: protein stability index of tFT-peptide fusion (C-terminal peptide) (PSI (0-1 scale)); higher = more stable (slower turnover)). Conditions: genetic background: wild type; temperature: 30 C.
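Note: PSI is a weighted mean of sequencing reads over stability bins, variants kept only with over 10 reads, mCherry proximal and sfGFP distal, peptide attached via GGGS linker.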

Sequence | protein stability index
SEFDSVSRIVYY | 0.705 ± 0.048
SEGSLIPGSHIA | 0.733 ± 0.066
SERKAKAEVAEA | 0.692 ± 0.064
SFARMTAIPGLR | 0.661 ± 0.029
SFFCSKCPLLCP | 0.533 ± 0.016
SFFLALSIRLPN | 0.609 ± 0.0042
SFFPPFHLLFSY | 0.532 ± 0.025
SFFTLDRHPSYD | 0.715 ± 0.023
SFGLGGSFFWVG | 0.7 ± 0.035
SFGLSAGGDDRW | 0.74 ± 0.016
SFGTLPLNSTAS | 0.644 ± 0.029
SFGVDPDNCVGF | 0.607 ± 0.061
SFNDVPPPEGIK | 0.67 ± 0.038
SFPAPPSPPPLP | 0.702 ± 0.081
SFRCLGFTSSRV | 0.681 ± 0.05
SFRFCSNRFTRL | 0.699 ± 0.056
SFRLLCPPPPLP | 0.6805 ± 0.0046
SFRPPPPSSFPA | 0.745 ± 0.019
SFSFLLSLSFLP | 0.529 ± 0.017
SFSLAGFVCCVI | 0.6002 ± 0.0045
SFSSHRSPPPPL | 0.698 ± 0.13
SFSSPPPTLVPP | 0.693 ± 0.038
SFTSSFPGSSPS | 0.703 ± 0.058
SFVLFAGPVFFW | 0.655 ± 0.025
SFVSRSRLAEVD | 0.682 ± 0.073
SFYFSAFYPSIV | 0.667 ± 0.013

Sequence | protein stability index
SFYIMSIQRKAK | 0.681 ± 0.052
SGASFLKVGLSV | 0.6812 ± 0.0032
SGASPSPPRTLS | 0.7493 ± 0.0017
SGAVGSTNYGTR | 0.743 ± 0.018
SGAVVIPCTFER | 0.669 ± 0.025
SGGCGWGAGVRV | 0.778 ± 0.02
SGGGSSSGKGIR | 0.715 ± 0.091
SGGRCVGVGGVV | 0.658 ± 0.028
SGGRPVQSWCAW | 0.779 ± 0.29
SGGSGGSCMRYV | 0.691 ± 0.025
SGLERGCSRCWH | 0.687 ± 0.0088
SGLSFPPLYSLL | 0.715 ± 0.092
SGLVCDGSSGGV | 0.635 ± 0.0083
SGRPEGERAPEQ | 0.728 ± 0.06
SGRVGRGAADWR | 0.681 ± 0.029
SGRVMRAFSCGV | 0.6228 ± 0.0036
SGSFAIYCSVSF | 0.611 ± 0.045
SGSGCSDRRPSR | 0.699 ± 0.02
SGSSIAVLPTPC | 0.747 ± 0.11
SGTFACCLGVCL | 0.6806 ± 0.0062
SGVILWSAWRDG | 0.7029 ± 0.0014
SGVLSLVDVWTG | 0.747 ± 0.1
SGVRAAGEGDSE | 0.735 ± 0.033
SGVRGRGSFWSV | 0.664 ± 0.04
SHHSVNWKPQGL | 0.668 ± 0.025
SHIAIEKLHSKN | 0.709 ± 0.056

Sequence | protein stability index
SHPTLCSFSPPA | 0.686 ± 0.035
SHRRSMTNNKAK | 0.705 ± 0.01
SIFVNICRRMKC | 0.616 ± 0.014
SIIIRVTQSGSG | 0.6414 ± 0.0056
SIIRDKERNNYK | 0.654 ± 0.015
SIISRVLDAMAK | 0.724 ± 0.21
SILQINRDNVMR | 0.742 ± 0.02
SILWRCEEEIRR | 0.736 ± 0.029
SINPRVYFVDCQ | 0.689 ± 0.034
SIPSPLVPPLTR | 0.72 ± 0.04
SIPVHGPCNRVV | 0.671 ± 0.025
SIRTKVVRNVVS | 0.625 ± 0.087
SKKNKNIQKHLY | 0.728 ± 0.011
SKKSKTQSNKNQ | 0.683 ± 0.02
SKPTQQNRRPDG | 0.596 ± 0.028
SKQNNIEMKKYK | 0.741 ± 0.036
SKTQRAQSGNSA | 0.699 ± 0.054
SLAGLLPCRLTP | 0.621 ± 0.023
SLAGWPPPSIST | 0.686 ± 0.013
SLAPLPLIVLFL | 0.487 ± 0.023
SLCCPLHQTRFR | 0.684 ± 0.046
SLDLALLSPFFG | 0.679 ± 0.029
SLENRFGGFYVG | 0.749 ± 0.066
SLEWGGGRRWPI | 0.719 ± 0.023
SLFPPPLLLSAS | 0.574 ± 0.0095
SLFSFLPRLYSH | 0.627 ± 0.023

Sequence | protein stability index
SLFSVLSPPYPS | 0.653 ± 0.032
SLGAHHAAFRVV | 0.63 ± 0.044
SLGGCVMCGTTL | 0.708 ± 0.029
SLGGLVSGPGLV | 0.687 ± 0.032
SLGGRVAGGWRD | 0.645 ± 0.1
SLGLALSLRSSV | 0.6361 ± 0.0054
SLGLHADLLSRT | 0.672 ± 0.064
SLGNTRRTKKSI | 0.636 ± 0.054
SLGRYVDCLLGC | 0.6463 ± 0.0044
SLGVVSHGASRP | 0.693 ± 0.027
SLHPPPPPFRLS | 0.753 ± 0.014
SLHSTPRPPAPG | 0.705 ± 0.063
SLILRHLSPPTP | 0.762 ± 0.15
SLIPLRLTLTRH | 0.739 ± 0.023
SLKRRWPYPNRP | 0.681 ± 0.011
SLLLMLPFPLPG | 0.618 ± 0.028
SLLLPPRPPSPS | 0.672 ± 0.017
SLLLPTPPPFRP | 0.644 ± 0.028
SLLLSRPLSTSH | 0.6945 ± 0.0031
SLLTSSPLPSPP | 0.696 ± 0.043
SLPAFPPNTFMP | 0.7 ± 0.017
SLPGVRVPRVGR | 0.715 ± 0.059
SLPHSFIYYPLP | 0.755 ± 0.037
SLPLPSPRPILR | 0.64 ± 0.0092
SLPLVLHGHRLY | 0.672 ± 0.027
SLPPAHPPPPRP | 0.693 ± 0.026

Sequence | protein stability index
SLPPFPVTSRHP | 0.691 ± 0.011
SLPPSSPLPPVS | 0.665 ± 0.035
SLPRPPPPASTP | 0.623 ± 0.0068
SLPSPSPPSHPL | 0.705 ± 0.033
SLPSSVAFLFPR | 0.802 ± 0.17
SLQTRANTGLWT | 0.689 ± 0.034
SLREIIRKSLGL | 0.677 ± 0.022
SLRILFDLRISL | 0.605 ± 0.031
SLRLFSPILSSL | 0.684 ± 0.011
SLRSSLFSPHHC | 0.649 ± 0.044
SLRSSRSRIKKG | 0.624 ± 0.086
SLRWVHVRGVLQ | 0.702 ± 0.013
SLSDYKAYSKTI | 0.65 ± 0.013
SLSGPDIRLKPF | 0.673 ± 0.046
SLSGPRCFLHSP | 0.681 ± 0.039
SLVLPPRPFPPF | 0.746 ± 0.058
SLVLPSFSLFSR | 0.728 ± 0.028
SLVLSFPLLSLP | 0.697 ± 0.025
SLYPPPAPRASP | 0.773 ± 0.036
SLYVRRCKEASK | 0.6894 ± 0.0023
SMSRSPPPSPPL | 0.669 ± 0.01
SMWKQIRVYGLW | 0.636 ± 0.028
SNHIAPAFKIKQ | 0.678 ± 0.0085
SNHTIIGNVVHF | 0.7131 ± 0.0056
SNHYYFILSHFA | 0.661 ± 0.0093
SNPLRPHLPPHF | 0.714 ± 0.054

Sequence | protein stability index
SNTKLIGGFFRD | 0.646 ± 0.1
SPALSPDPSPSP | 0.704 ± 0.037
SPALVRLSLPRP | 0.86 ± 0.14
SPAPPPGVPPSR | 0.687 ± 0.03
SPDCSLSPSVSG | 0.684 ± 0.029
SPFCGVRFRFCY | 0.632 ± 0.064
SPFGFPPPSPPA | 0.6843 ± 0.003
SPFPLSSLRPLP | 0.7552 ± 0.0022
SPGPSPPSPIGP | 0.61967 ± 0.00044
SPGTFLSLRMSI | 0.703 ± 0.015
SPHLPPLPDPSP | 0.576 ± 0.0069
SPISATISPSFR | 0.728 ± 0.018
SPIVLTYHYLCR | 0.666 ± 0.0087
SPLGPLGPPSET | 0.693 ± 0.052
SPLLYPPPSTSI | 0.715 ± 0.042
SPLPLFSPCPPP | 0.693 ± 0.014
SPLPPPSLPRPP | 0.641 ± 0.017
SPLRHLPGPSFP | 0.696 ± 0.012
SPLSLPTRSCLL | 0.7075 ± 0.0066
SPLTSSSLPPRT | 0.691 ± 0.032
SPPAPACTSYSL | 0.7018 ± 0.0019
SPPATPWPPDLR | 0.627 ± 0.051
SPPFLPCLFHAS | 0.687 ± 0.048
SPPFLPVPASSL | 0.709 ± 0.027
SPPGYPGNPSPL | 0.662 ± 0.021
SPPHSLSSSCSL | 0.811 ± 0.05

Sequence | protein stability index
SPPLFCSPPISP | 0.719 ± 0.043
SPPLHPPPPFPL | 0.769 ± 0.047
SPPLPACSPPLA | 0.715 ± 0.035
SPPLPHLPTPTP | 0.603 ± 0.14
SPPLPPLPSVAF | 0.637 ± 0.16
SPPLPPPARLPA | 0.615 ± 0.019
SPPLPRLSPLPN | 0.6863 ± 0.0012
SPPPAPSHPPSP | 0.73 ± 0.05
SPPPGSRTFAFR | 0.697 ± 0.042
SPPPIVPPPSPP | 0.662 ± 0.12
SPPPLCCPPLAP | 0.728 ± 0.023
SPPPLLLPLSPP | 0.727 ± 0.047
SPPPLNTFPPLP | 0.691 ± 0.025
SPPPLRFPPPPP | 0.763 ± 0.13
SPPPNPPRPSSR | 0.768 ± 0.014
SPPPPASPPAPP | 0.648 ± 0.062
SPPPPHVPLSPS | 0.712 ± 0.032
SPPPPPALPEYQ | 0.6877 ± 0.0012
SPPPPPPPPPPL | 0.757 ± 0.041
SPPPPPPRPLTP | 0.672 ± 0.027
SPPPPSPRFPSP | 0.678 ± 0.017
SPPPPTPLPPPP | 0.6757 ± 0.0047
SPPPPVPSAGPL | 0.7 ± 0.042
SPPPSPPPPLPP | 0.5649 ± 0.0049
SPPRHPPPASPA | 0.7128 ± 0.0035
SPPSPSTPPARP | 0.747 ± 0.15

Sequence | protein stability index
SPPSSPHPPPRT | 0.693 ± 0.01
SPPVPLPYLASP | 0.663 ± 0.061
SPQPSLPFLPPL | 0.668 ± 0.026
SPRPHRHLPFRP | 0.709 ± 0.0072
SPRPIKCRPLLI | 0.62 ± 0.018
SPRPPPLIIAST | 0.664 ± 0.031
SPRPPSLPYAPP | 0.701 ± 0.019
SPRPTRCGQNSM | 0.6897 ± 0.0053
SPRPYFSLVLFF | 0.539 ± 0.0032
SPRRSLPPAGFT | 0.71 ± 0.017
SPRVRVYLTDTG | 0.7306 ± 0.0042
SPSCFFIFALPC | 0.605 ± 0.037
SPSCSLLCPLPR | 0.72 ± 0.028
SPSIRFILWGPI | 0.678 ± 0.041
SPSLSPSPPSPS | 0.6699 ± 0.0039
SPSPLPTTPPTC | 0.641 ± 0.0077
SPSPPHPLTTTL | 0.711 ± 0.075
SPSPPLASPPPL | 0.686 ± 0.016
SPSRPTPNTIGP | 0.615 ± 0.031
SPSSFVTFVVLE | 0.652 ± 0.098
